Experimental data published in patent publication US20240182571A1 (OSE IMMUNOTHERAPEUTICS, published 2024).

B1: anti PD-1*1 (antibody, human IgG1, kappa, N297A)
chain: DKTHTCPPCPAPELLGGPSVFLFPPKPKDTLMISRTPEVTCVVVDVSHEDPEVKFNWYVDGVEVHNAKTKPREEQYASTYRVVSVLTVLHQDWLNGKEYKCKVSNKALPAPIEKTISKAKGQPREPQVYTLPPCRDELTKNQVSLWCLVKGFYPSDIAVEWESNGQPENNYKTTPPVLDSDGSFFLYSKLTVDKSRWQQGNVFSCSVMHEALHNHYTQKSLSLSPGK
heavy: not shown
light: DVVMTQSPLSLPVTLGQPASISCRSSQSLVHANTNTYLEWYQQRPGQSPRLLIYKVSNRFSGVPDRFSGSGSGTDFTLKISRVEAEDVGVYYCFQGTHVPNTFGQGTKLEIKRTVAAPSVFIFPPSDEQLKSGTASVVCLLNNFYPREAKVQWKVDNALQSGNSQESVTEQDSKDSTYSLSSTLTLSKADYEKHKVYACEVTHQGLSSPVTKSFNRGEC
notes: One-armed control: like construction 3 but without IL-7; Chain A is the Fc chain (knob), chain B the anti PD-1 heavy chain (hole)
B2: anti PD-1*2 (antibody, human IgG4 S228P, kappa, V domains shown)
VH: QIQLVQSGSELKKPGASVKVSCKASGYTFTHYAMNWVRQAPGQGLEWMGWINTNTGEPTYAQGFTGRFVFSLDTSVSTAYLQISSLKAEDTAVYYCAREREPGMDNWGQGTLVTVSS
VL: DVVMTQSPLSLPVTLGQPASISCRSSQSLVHANTNTYLEWYQQRPGQSPRLLIYKVSNRFSGVPDRFSGSGSGTDFTLKISRVEAEDVGVYYCFQGTHVPNTFGQGTKLEIKR
notes: Anti PD-1 antibody with 2 anti PD-1 arms and no cytokine; also called anti PD-1 alone; anti PD-1 control

Experiments:
[1] = target: T1, biotinylated Human PD1 (AcroBiosystems, reference EP-101) (human, UniProt Q15116 25-167, limits assumed, biotinylated); experiment: competitive ELISA, PD-L1 immobilised, antibody mixed with biotinylated human PD-1; PD1/PDL1 antagonist activity
T1 construct: also called biotinylated recombinant human PD-1; Biotin-PD-1Fc
T1 sequence (Q15116 25-167 limits assumed): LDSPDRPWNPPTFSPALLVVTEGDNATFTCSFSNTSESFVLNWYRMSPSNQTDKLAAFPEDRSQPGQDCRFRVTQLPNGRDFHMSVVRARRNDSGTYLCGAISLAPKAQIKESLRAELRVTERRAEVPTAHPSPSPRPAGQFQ
Experimental: (§1) A. PD-1 binding ELISA assay. Human recombinant PD-1 (rPD1) protein was immobilized, and antibodies were added at different concentrations. Revelation was performed with an anti-human Fc antibody coupled to peroxidase. Colorimetry was determined at 450 nm using TMB substrate. […] All constructions tested comprise a […] linker between the Fc and IL-7 domain.
Purified antibody (at different concentrations) were mixed with 0.66 μg/ml final (fix concentration) of biotinylated Human PD1 (AcroBiosystems; USA; reference EP-101) to measure competitive binding for 2 h at 37° C.

PD-1 expressed on cells [2] = target: T2, PD-1 expressed on cells (UniProt Q15116 25-288); experiment: flow cytometry, 1:1 co-culture of U937 PD-1+ and U937 PD-1- cells, detection with anti-human IgG PE, % positive cells
T2 construct: whole, on cells; also called U937 PD-1+ cells; U937 PD-1+ CD127+ cells
T2 sequence (Q15116 25-288): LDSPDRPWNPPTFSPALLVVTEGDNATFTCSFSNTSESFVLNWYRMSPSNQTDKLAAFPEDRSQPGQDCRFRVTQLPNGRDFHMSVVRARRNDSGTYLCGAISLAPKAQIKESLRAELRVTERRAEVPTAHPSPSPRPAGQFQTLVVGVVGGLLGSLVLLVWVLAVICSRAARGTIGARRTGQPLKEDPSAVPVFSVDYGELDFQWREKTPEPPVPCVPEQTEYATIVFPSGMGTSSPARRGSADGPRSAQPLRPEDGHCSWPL

[3] = target: T3, Recombinant hPD1 (Sino Biologicals, reference 10377-H08H) (human, UniProt Q15116 25-167); experiment: ELISA, recombinant human PD-1 immobilised, anti-human Fc peroxidase
T3 construct: Bought reagent, immobilised on plastic; also called Human recombinant PD-1; rPD1
T3 sequence (Q15116 25-167 limits assumed): as the sequence (Q15116 25-167 limits assumed) above
Experimental: as §1
For activity ELISA assay, recombinant hPD1 (Sino Biologicals, Beijing, China; reference 10377-H08H) was immobilized on plastic at 0.5 μg/ml in carbonate buffer (pH9.2) and purified antibody were added to measure binding.

PD-1 expressed on cells [4] = target: T2, PD-1 expressed on cells; experiment: flow cytometry, 1:1 co-culture of U937 PD-1+ and U937 PD-1- cells, detection with anti-human IgG PE, % positive cells [middle panel]
PD-1 expressed on cells [5] = target: T2, PD-1 expressed on cells; experiment: flow cytometry (FACs analysis), U937 PD-1+ CD127+ cells co-cultured with U937 PD-1- CD127+ cells, detection with anti-human IgG PE, % cell binding
Experimental: (§2) U937 cells expressing CD127+ or co-expressing CD127+ and PD-1+ cells were stained with a cell proliferation dye (CPDe450 or CPDe670) and co-cultivated at ratio 1:1 prior incubation with different concentrations of anti PD-1 IL-7 bifunctional molecules. Staining with and anti-human IgG PE and pSTAT5 activation was quantified after incubation by flow cytometry. A. EC50 binding (nM) was calculated for each cell type and each construction. B. EC50 pSTAT5 (nM) was calculated for each cell type and each construction.
(§3) Finally, the specific cis-targeting and cis-activity of the different anti PD-1 IL-7 constructions were analyzed in a co-culture assay. U937 PD-1+ CD127+ cells were mixed with PD-1− CD127+ cells (ratio 1:1), then incubated with the different constructions at escalating doses. The binding and the IL-7R signaling (pSTAT5) was quantified by flow cytometry. EC50 (nM) of the binding and the pSTAT5 activation was determined for each construction and for each PD-1+ and PD-1− cell population (FIG. 4A and B).
(§4) U937 transduced with CD127 and PD-1 were mixed with U937 transduced with CD127+ only.

PD-1 expressed on cells [6] = target: T2, PD-1 expressed on cells; experiment: as above; remark: listed apart in the source
Experimental: as §2, §3, §4

Binder	EC50 [1] [nM]	EC50 (read off the curve) (PD-1 expressed on cells [2]) [nM]	EC50 [3] [nM]	EC50 (read off the curve) (PD-1 expressed on cells [4]) [pM]	EC50 (read off the curve) (PD-1 expressed on cells [5]) [nM]	EC50 (read off the curve) (PD-1 expressed on cells [6]) [nM]
B1	5.01	~0.02	0.238			
B2			0.021	~5	~0.02	~0.02
